The text below walks through data of patent US20250136687A1 (SHANDONG SIMCERE BIOPHARMACEUTICAL, published 2025).

Read-outs that look alike come from different tables or passages of the source.

In experiment [1] the target is T1, recombinant human CD3ε-ECD His protein (human, UniProt P07766 23-126).
T1 construct: extracellular domain; also called human CD3ε-His; CD3ε antigen protein; not shown: His tag
In words: SPR, antibody captured on Protein A chip.

For experiment [2], the target named is T2, human CD3ε/δ-His (human, UniProt P07766 23-126; P04234 22-105).
T2 construct: Bought recombinant heterodimer with His tag; also called human CD3ε/δ protein
In words: SPR, antibody captured on Protein A chip. In general terms: In SPR one partner is held on a chip, and binding of the other changes the refractive index at the surface.

The target in experiment [3] is T3, human CD3 on the cell surface (Jurkat cells, expanded human T cells, Jurkat-Lucia NFAT cells, human PBMC) (human, UniProt P07766 23-207; P04234 22-171; P09693 23-182).
T3 construct: whole, on cells; Endogenous CD3 within the TCR-CD3 complex on cells (also zeta chains and TCR); the cell type is named under assay
As to the kind of experiment: FACS, expanded human T cells. Background: In flow cytometry, cells or beads pass a laser one at a time.

Experiment [4] has as its target T4, cynomolgus monkey CD3 on the surface of expanded monkey T cells (cynomolgus monkey, UniProt Q95LI5 22-198; Q95LI8 22-171; Q95LI7 23-181).
T4 construct: whole, on cells; Endogenous CD3 within the TCR-CD3 complex on T cells expanded from cynomolgus monkey PBMC
In words: FACS, expanded monkey T cells.

The target in experiment [5] is T5, monkey CD3ε/δ-His (monkey, UniProt Q95LI5 22-117; Q95LI8 22-105).
T5 construct: Bought recombinant heterodimer with His tag
As to the kind of experiment: ELISA, coated antigen. In general terms: An ELISA detects its analyte on a solid surface through an enzyme-linked reagent.

In experiment [6] the target is T6, monkey CD3ε protein (monkey, UniProt Q95LI5 22-117, limits assumed).
T6 sequence (looked up): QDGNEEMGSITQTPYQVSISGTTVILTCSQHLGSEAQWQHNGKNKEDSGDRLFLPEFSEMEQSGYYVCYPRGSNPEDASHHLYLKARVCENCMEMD
In words: ELISA, coated antigen.

The target in experiment [7] is T1, recombinant human CD3ε-ECD His protein. In words: ELISA, coated antigen. How it is done:
(§1) To detect the binding activity of the humanized antibodies to CD3 protein, CD3 protein was diluted with PBS to the final concentration of […], then added to a 96-well ELISA plate at 50 μL/well, and the plate was sealed with a plastic film, and incubated overnight at 4° C. On the next day, the plate was washed 2 times with PBS, and a blocking solution [PBS+2% (v/v) BSA] was added for blocking at room temperature for 2 h. The blocking solution was poured off, and the antibody (initial concentration of 100 nM, and gradient dilution at 1:10) or a negative control antibody was added at 50 µl/well. After incubation at 37° C. for 2 h, the plate was washed 3 times with PBS. […] TMB substrate was added at 50 μl/well, and incubated at room temperature for 10 min, and then a stop solution (1.0 N HCl) was added at 50 μl/well. The OD450 nm values were read by an ELISA microplate reader (Multimode Plate Reader, EnSight, purchased from Perkin Elmer).

Experiment [8] deals with T2, human CD3ε/δ-His. In words: ELISA, coated antigen. How it is done: as §1
Experiment [9] addresses T4, cynomolgus monkey CD3 on the surface of …. As to the kind of experiment: FACS, expanded monkey T cells. The procedure: The binding of the chimeric antibodies to CD3 on the cell surface was analyzed by detecting the binding of the antibodies to Jurkat cells and human T cells. Suspension cells Jurkat cells were scale-up cultured in T-75 cell culture flasks to the logarithmic growth phase, the supernatant of the medium was discarded by centrifugation, and the cell pellet was washed 2 times with PBS for later use. The expanded human T cells were washed 2 times with PBS for later use. After counting the cells in the previous step, the cell pellet was resuspended with [PBS+2% (w/w) BSA] blocking solution to 4×10⁶ cells/ml, and added to a 96-well FACS reaction plate at 50 μl/well, and then the chimeric antibody to be tested was added at 50 μl/well, and incubated at 4° C. for 1 h. The cells were centrifuged and washed 3 times with a PBS buffer. […] The cells were centrifuged and washed 5 times with PBS, and FACS (FACS Canto™, purchased from BD Company) was used for detection and result analysis. Data analysis was performed by software (CellQuest) to obtain the mean fluorescence […] (MFI) of the cells. And then software (GraphPad Prism8) was used for analysis, data fitting, and EC50 value calculation. The same method was used to simultaneously detect the binding of the chimeric antibodies to endogenous CD3 negative cells MOLT4 cells. […]
The source holds these as a separate data set.

Experiment [10] has as its target T1, recombinant human CD3ε-ECD His protein. In words: SPR (Biacore), antibody captured on Protein A chip. How it is done:
Sample buffer and running buffer were HBS-EP+(10 mM HEPES, 150 mM NaCl, 3 mM EDTA, 0.05% surfactant P20) (GE Healthcare; BR-1006-69). The flow-through cell was set to 25° C. The sample block was set to 16° C. Both were pretreated with the running buffer. In each cycle, the antibody to be detected was first captured with a Protein A chip, and then a single concentration of CD3ε antigen protein (purchased from Sino Biological, Inc. (China), catalog number: 10977-H08H) was injected. The binding and dissociation processes of the antibody and the antigen protein were recorded, and finally a glycine solution (pH 1.5, GE Healthcare; BR-1003-54) was used to complete chip regeneration. The binding was measured by injecting different concentrations of recombinant human CD3ε-ECD His proteins in a solution for 240 s with a flow rate of 30 μL/min. The concentration started from 200 nM (see the detailed results for the actual concentration in the test) and was diluted at 1:1, making a total of 5 concentrations. The dissociation phase was monitored for up to 600 s and was triggered by switching from sample solution to running buffer. The surface was regenerated by washing with a 10 mM glycine solution (pH 1.5) for 30 s at a flow rate of 30 μL/min. Bulk refractive index difference was corrected by subtracting the response obtained from the goat anti-human Fc surface. Blank injection was also subtracted (=double reference). For calculation of apparent KD and other kinetic parameters, Langmuir 1:1 model was used.

For experiment [11], the target named is T3, human CD3 on the cell surface (Jurkat …). In words: cell-based or functional assay.
Experiment [12] shares this target. In words: FACS, expanded human T cells. How it is done: (§2) The binding of the chimeric antibodies to CD3 on the cell surface was analyzed by detecting the binding of the antibodies to Jurkat cells and human T cells. Suspension cells Jurkat cells were scale-up cultured in T-75 cell culture flasks to the logarithmic growth phase, the supernatant of the medium was discarded by centrifugation, and the cell pellet was washed 2 times with PBS for later use. The expanded human T cells were washed 2 times with PBS for later use. After counting the cells in the previous step, the cell pellet was resuspended with [PBS+2% (w/w) BSA] blocking solution to 4×10⁶ cells/ml, and added to a 96-well FACS reaction plate at 50 μl/well, and then the chimeric antibody to be tested was added at 50 μl/well, and incubated at 4° C. for 1 h. The cells were centrifuged and washed 3 times with a PBS buffer. […] The cells were centrifuged and washed 5 times with PBS, and FACS (FACS Canto™, purchased from BD Company) was used for detection and result analysis. Data analysis was performed by software (CellQuest) to obtain the mean fluorescence […] (MFI) of the cells. And then software (GraphPad Prism8) was used for analysis, data fitting, and EC50 value calculation. The same method was used to simultaneously detect the binding of the chimeric antibodies to endogenous CD3 negative cells MOLT4 cells.
The source holds these as a separate data set.

The target is the same in experiment [13]. As to the kind of experiment: FACS, Jurkat cells. How it is done:
as §2

The target in experiment [14] is T1, recombinant human CD3ε-ECD His protein. In words: ELISA, coated antigen. The procedure:
as §1
The source holds these as a separate data set.

Experiment [15] has as its target T2, human CD3ε/δ-His. In words: ELISA, coated antigen. How it is done: as §1
The source holds these as a separate data set.

In experiment [16] the target is T1, recombinant human CD3ε-ECD His protein. As to the kind of experiment: ELISA, coated antigen. How it is done:
as §1
The source holds these as a separate data set.

Experiment [17] deals with T2, human CD3ε/δ-His. In words: ELISA, coated antigen. How it is done: as §1
This is another data set of the same source.

Experiment [18] addresses T3, human CD3 on the cell surface (Jurkat …). As to the kind of experiment: cell-based or functional assay. This is another data set of the same source.
Experiment [19] has the same target. In words: FACS, expanded human T cells. How it is done: as §2
The source holds these as a separate data set.

The target in experiment [20] is T4, cynomolgus monkey CD3 on the surface of …. As to the kind of experiment: FACS, expanded monkey T cells, 4 nM antibody. How it is done: as §2
FACS detection and data analysis were performed on the cryopreserved monkey T cells of Example 2.4 according to the method in Example 5.1.

T3 sequence (P07766 23-207, chain 1 of 3): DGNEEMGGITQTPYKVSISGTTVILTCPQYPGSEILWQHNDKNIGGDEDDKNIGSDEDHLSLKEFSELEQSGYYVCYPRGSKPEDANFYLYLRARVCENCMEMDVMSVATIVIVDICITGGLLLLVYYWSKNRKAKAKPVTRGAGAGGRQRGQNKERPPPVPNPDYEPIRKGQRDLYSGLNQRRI
T3 sequence (P04234 22-171, chain 2 of 3): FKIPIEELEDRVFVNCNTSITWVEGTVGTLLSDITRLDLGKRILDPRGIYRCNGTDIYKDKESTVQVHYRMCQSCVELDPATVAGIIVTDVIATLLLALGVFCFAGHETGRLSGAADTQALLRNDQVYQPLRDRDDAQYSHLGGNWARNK
T3 sequence (P09693 23-182, chain 3 of 3): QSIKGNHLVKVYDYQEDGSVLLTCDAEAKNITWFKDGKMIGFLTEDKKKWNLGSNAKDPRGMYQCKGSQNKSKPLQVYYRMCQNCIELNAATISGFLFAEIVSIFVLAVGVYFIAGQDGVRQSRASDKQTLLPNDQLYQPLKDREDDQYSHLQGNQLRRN
T1 sequence (P07766 23-126): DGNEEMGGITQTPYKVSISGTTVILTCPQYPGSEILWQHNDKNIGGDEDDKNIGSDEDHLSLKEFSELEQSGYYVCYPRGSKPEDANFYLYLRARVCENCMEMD
T2 sequence (P07766 23-126, stated change not applied, form in doubt, chain 1 of 2): as the sequence (P07766 23-126) above
T2 sequence (P04234 22-105, stated change not applied, form in doubt, chain 2 of 2): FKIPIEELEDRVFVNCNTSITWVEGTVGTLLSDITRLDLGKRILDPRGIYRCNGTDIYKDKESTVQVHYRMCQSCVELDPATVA
T5 sequence (Q95LI8 22-105, stated change not applied, form in doubt, chain 2 of 2, one chain of several): as the sequence (P04234 22-105, stated change not applied, form in doubt, chain 2 of 2) above, with I5V, N15K, I20V, S32T, D33N, I34N, T64A, S74N, V83L counted along it

B1: 6-44.5-H1-L2 humanized antibody (antibody, human IgG1, kappa, V domains shown)
VH: EVQLVQSGAEVKKPGSSVKVSCKASGHTFSSHIMHWVRQAPGQGLEWMGYINPNNDRTEYSEKFKGRVTITADKSTSTAYMELSSLRSEDTAVYYCAGEAYYSNSLYAMDYWGQGTTVTVSS
VL: DIVMTQSPDSLAVSLGERATINCKSSQSLFNSRTRKNYLAWYQQKPGQSPKLLIYWASTRESGVPDRFSGSGSGTDFTLTISSLQAEDVAVYYCKQSYYLRTFGGGTKVEIKR
For B1, the Kd was 0.669 nM in experiment [1] and 69 nM in [2]. The koff in experiment [1] was 0.000311 s⁻¹; in experiment [2], 0.0339 s⁻¹. Besides, the kon is 466000 M⁻¹ s⁻¹ in experiment [1] and 491000 M⁻¹ s⁻¹ in [2]. The EC50 was 0.43 nM in experiment [3]; 0.17 nM in [4]; 0.000225 nM in experiment [5]; 0.00947 pM in [6]; 0.09 nM in experiment [7]; 0.03 nM in experiment [8]. Further, the max_MFI in experiment [3] was determined as 34000 MFI; in [4], 24800 MFI. The max-OD450 in [5] turned out to be 3.07 OD450; in experiment [6], 2.84 OD450; in experiment [7], 2.7 OD450; in [8] it was 3.05 OD450.

B2: 7-35.6 human-murine chimeric antibody (antibody, human IgG1, lambda, V domains shown)
VH: EVQLVESGGGLVQPKGSLKLSCAASGFTFNTYAMNWVRQAPGKGLEWVGRIRSKINNYATYYGDSVKDRFTISRDDSQSMFYLQMNNLKTEDTAMYYCVIHENYGSISWFAYWGQGTLVTVSA
VL: QAVVTQESTLTTSPGETVTLTCRSSTGAVTTSNYANWVQEKPDHLFTGLIGGTNNRAPGVPARFSGSLIGDKAALTITGAQTEDEAIYFCALWYSNHWVFGGGTKLTVLG
notes: Human IgG1 chimera
With B2, in experiment [9], it took 2.74 nM to reach a half-maximal effect (EC50). Moreover, in experiment [10], the dissociation constant Kd came out at 0.959 nM, the koff came to 0.000261 s⁻¹ and the kon came out at 272000 M⁻¹ s⁻¹. In experiment [11], the “EC50 (nM), luciferase reporter, Jurkat-Lucia NFAT cells” value is 11.8 nM and the “Maximum response value (RLU)” value is 8570 RLU. In [12], this molecule gave an EC50 of 4.62 nM and an MFI_Max of 3800 MFI. In experiment [13], this molecule showed a concentration for a half-maximal effect (EC50) of 3.37 nM and an MFI_Max of 2800 MFI.

B3: 7221G20-hIgG1 (antibody, V domains shown)
VH: EVQLVESGGGLVQPGRSLRLSCAASGFTFDDYSMHWVRQAPGKGLEWVSGISWNSGSIGYADSVKGRFTISRDNAKNSLYLQMNSLRAEDTALYYCAKYGSGYGKFYYYGMDVWGQGTTVTVSS
VL: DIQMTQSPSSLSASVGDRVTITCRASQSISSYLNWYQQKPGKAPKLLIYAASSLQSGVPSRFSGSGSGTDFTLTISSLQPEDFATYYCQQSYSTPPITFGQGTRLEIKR
On to B3, for which the EC50 in [3] was found to be 4.72 nM; in experiment [15] it was 23.4 nM; in experiment [8], 23.4 nM; in experiment [17] it was 23.4 nM. Also, in experiment [3], the max_MFI amounted to 20900 MFI. Besides, the binding result in [14] is “no binding (tested: 100 nM (initial concentration))”. The max-OD450 in experiment [14] worked out at 0.15 OD450; in experiment [15], 1.31 OD450; in experiment [7] it was 0.06 OD450; in experiment [8] it was 1.31 OD450; in experiment [16], 0.05 OD450; in experiment [17], 1.31 OD450.

B4: 8-18.1 human-murine chimeric antibody (antibody, human IgG1, kappa, V domains shown)
VH: QVQLQQSGAELARPGASVKMSCKASGYIFTMNTMHWVKQRPGQGLEWIGYINPYSGYTKYNQIFKDKATLTADKSSSTAYMRLSSLTSEDSAVYYCLRGGEGVWGQGTTLTVSS
VL: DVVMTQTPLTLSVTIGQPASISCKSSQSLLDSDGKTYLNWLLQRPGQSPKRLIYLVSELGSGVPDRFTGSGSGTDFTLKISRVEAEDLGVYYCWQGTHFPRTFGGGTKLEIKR
notes: Human IgG1 chimera
On to B4, for which, in experiment [18], the “EC50 (nM), luciferase reporter, Jurkat-Lucia NFAT cells” value worked out at 11.8 nM and the “Maximum response value (RLU)” value came to 10400 RLU. For the same molecule, in [10], the Kd amounted to 0.542 nM, the koff amounted to 0.000241 s⁻¹ and the kon turned out to be 445000 M⁻¹ s⁻¹. In [19], this molecule gave an EC50 of 1.58 nM and an MFI_Max of 8980 MFI. The “MFI at antibody concentration 4 nM” value in [20] worked out at 16100 MFI.

As usually defined, the Kd is a measure of binding affinity in units of concentration. One may read the koff as the first-order rate constant of dissociation. One may read the kon as the rate constant with which the complex forms. One may read the EC50 as the concentration giving half of the maximal effect.
